# B1: plant-produced recombinant human IL-38, mature form C2-W152 with C-terminal 7xHIS tag (ligand)
# chain: CSLPMARYYIIKYADQKALYTRDGQLLVGDPVADNCCAEKICILPNRGLARTKVPIFLGIQGGSRCLACVETEEGPSLQLEDVNIEELYKGGEEATRFTFFQSSSGSAFRLEAAAWPGWFLCGPAEPQQPVQLTKESEPSARTKFYFEQSWHHHHHHH
# notes: range 2-152; also called rhIL-38; plantakine IL-38
# How the values were obtained:
# [1] = system: human NSCLC cell line NCI-H1792; experiment: Attenuation of P1-induced IL-6 secretion in NCI-H1792 cells by pre-treatment with plant-produced cytokines (ELISA); format: cell-based; settings: H1792 cells; pre-incubated 3 h, 1.0 ng/ml; P1 24 h
# [2] = system: LPS-stimulated PBMCs; experiment: Cytokine secretion from LPS-stimulated PBMCs treated with plantakines (multiplex Luminex); format: cell-based, human
# Method: The bioactivity of our plantakines IL-37b and IL-38 was assessed by monitoring the secretion of 11 cytokines, generally regarded as inflammatory markers, from PBMCs stimulated with an IA. Freshly isolated human PBMCs were subjected to various treatments-combinations of the IAs with the plantakines at different concentrations. Two different model IAs were used, either the bacterial lipopolysaccharides (LPS) or a lectin from Phaseolus vulgaris (phytohaemagglutinin, PHA); each of the IAs was applied onto cells separately, each IA was applied at two concentrations: […]; PHA at 5 and 10 μg/mL. Each IA at each concentration was applied in combination with one of the two plantakines, each of them at three different concentrations: 1, 10 and 100 ng/ml of the monomeric forms present in the purified extracts. Also included were treatments comprised of either IA at their lower concentrations, in combination with both plantakines at 10 ng/ml concentration in order to assess possible synergistic effects. Cells with only IAs applied represented the reference (positive controls for each concentration), cells without any treatment represented the basal level (negative control). The levels of eleven different pro-inflammatory cytokines secreted into the medium from the PBMCs-GM-SCF, IFNγ. TNFα, IL-1α, IL-1β, IL-6, IL-8, IL-22, IL12, IL-17 and IL-10 were compared between the treatments and the controls. We applied Generalized Estimating Equation (GEE) model for the statistical data analysis. This statistical approach allows for nested observations and was used to test the effects of the plantakines IL-37b and IL-38 and their dosage in the context of IA-stimulated PBMCs inflammatory responses.
# After isolation, the PBMCs from each donor separately were counted, plated in equal numbers per well and stimulated for 24 h with the applied treatments. Control wells on the plate contained media only (as basal level controls), and LPS and PHA (as positive controls at their corresponding concentrations). After the 24 h treatments stimulation the PBMCs' culture supernatants were used in the multiplex Luminex platform-assisted analysis of the concentrations of the 11 secreted pro-inflammatory cytokines.
# The whole blood from 5 random human donors was collected in ACD Vacutainer tubes and immediately processed for isolation of PBMCs by gradient density centrifugation using Lympholyte. […] 5% CO2 and >80% humidity. PBMCs were treated with one of two IAs at 2 concentrations each ([…]; PHA at 5 and 10 μg/mL) in combination with two test items (plant-produced IL-37b or IL-38) at three concentrations each (1, 10 and 100 ng/ml), based on the monomeric form amounts estimated with densitometry (ImageJ). Each treatment was tested in triplicates. Control wells contained media only (negative control, basal level of detection) and the examined IAs at both tested concentrations as the positive controls. The PBMCs were incubated for 24 hours after the stimulation for analysis of the levels of the secreted cytokines that were determined in the culture supernatant using a multiplex immunoassay (MAGPix®, Luminex), analytes were selected from the Milliplex panel HCYTOMAG-60K, sensitivity range of […]. All parameters of the Milliplex panel cytokines analysis using Luminex platform were validated (Millipore-Sigma).
# Non-linear logarithm transformation was performed to address non-normality of distribution of Luminex-derived numeric data. Generalized Estimating Equation (GEE) method was used in the analysis of nested (correlated) structure of the data. Secreted inflammatory cytokine values were used as dependent variables and test item (plantakines) with dosage as independent predictors (factors). Separate analyses were conducted for each of the 11 monitored cytokines and each inflammatory agent/concentration combination. Analysis was performed using SPSS software version 27 using the level of significance 0.05 (p-values <0.05 are reported as statistically significant). […]
molecule,measurement,setting,value
B1,attenuation of IL-6 secretion triggered by P1,[1],−60%
same,secreted GM-CSF level modulation vs positive control,"[2]; 1 ng/mL, LPS 150 pg/mL","−59.4%, p < 0.001"
same,secreted IL-1α level modulation vs positive control,"[2]; 1 ng/mL, LPS 150 pg/mL","−25.9%, p < 0.001"
same,secreted IL-1β level modulation vs positive control,"[2]; 1 ng/mL, LPS 150 pg/mL","−27.4%, p < 0.001"
same,secreted IL-6 level modulation vs positive control,"[2]; 1 ng/mL, LPS 150 pg/mL","−7.7%, p = 0.178"
same,secreted IL-8 level modulation vs positive control,"[2]; 1 ng/mL, LPS 150 pg/mL","22.1%, p = 0.625"
same,secreted IL-10 level modulation vs positive control,"[2]; 1 ng/mL, LPS 150 pg/mL","−14.8%, p = 0.040"
same,secreted IL-12 level modulation vs positive control,"[2]; 1 ng/mL, LPS 150 pg/mL","14.9%, p = 0.607"
same,secreted IL-17 level modulation vs positive control,"[2]; 1 ng/mL, LPS 150 pg/mL","−21.3%, p = 0.004"
same,secreted IL-22 level modulation vs positive control,"[2]; 1 ng/mL, LPS 150 pg/mL","−38.1%, p = 0.065"
same,secreted TNFα level modulation vs positive control,"[2]; 1 ng/mL, LPS 150 pg/mL","−36.9%, p = 0.035"
same,secreted GM-CSF level modulation vs positive control,"[2]; 1 ng/mL, LPS 300 pg/mL","−14.1%, p = 0.118"
same,secreted IFNγ level modulation vs positive control,"[2]; 1 ng/mL, LPS 300 pg/mL","−16.5%, p = 0.006"
same,secreted IL-1α level modulation vs positive control,"[2]; 1 ng/mL, LPS 300 pg/mL","−7.7%, p = 0.178"
same,secreted IL-1β level modulation vs positive control,"[2]; 1 ng/mL, LPS 300 pg/mL","−13.1%, p < 0.001"
same,secreted IL-6 level modulation vs positive control,"[2]; 1 ng/mL, LPS 300 pg/mL","−5.8%, p = 0.323"
same,secreted IL-10 level modulation vs positive control,"[2]; 1 ng/mL, LPS 300 pg/mL","6.2%, p = 0.006"
same,secreted IL-12 level modulation vs positive control,"[2]; 1 ng/mL, LPS 300 pg/mL","1.9%, p = 0.906"
same,secreted IL-17 level modulation vs positive control,"[2]; 1 ng/mL, LPS 300 pg/mL","−28.8%, p < 0.001"
same,secreted IL-22 level modulation vs positive control,"[2]; 1 ng/mL, LPS 300 pg/mL","−40.0%, p < 0.001"
same,secreted TNFα level modulation vs positive control,"[2]; 1 ng/mL, LPS 300 pg/mL","−49.3%, p = 0.184"
same,secreted GM-CSF level modulation vs positive control,"[2]; 10 ng/mL, LPS 150 pg/mL","7.3%, p = 0.230"
same,secreted IFNγ level modulation vs positive control,"[2]; 10 ng/mL, LPS 150 pg/mL","−16.5%, p = 0.012"
same,secreted IL-1α level modulation vs positive control,"[2]; 10 ng/mL, LPS 150 pg/mL","−14.8%, p < 0.001"
same,secreted IL-1β level modulation vs positive control,"[2]; 10 ng/mL, LPS 150 pg/mL","−13.1%, p = 0.002"
same,secreted IL-6 level modulation vs positive control,"[2]; 10 ng/mL, LPS 150 pg/mL","0.0%, p = 1.000"
same,secreted IL-8 level modulation vs positive control,"[2]; 10 ng/mL, LPS 150 pg/mL","8.3%, p = 0.639"
same,secreted IL-10 level modulation vs positive control,"[2]; 10 ng/mL, LPS 150 pg/mL","−3.9%, p = 0.264"
same,secreted IL-12 level modulation vs positive control,"[2]; 10 ng/mL, LPS 150 pg/mL","51.1%, p = 0.522"
same,secreted IL-17 level modulation vs positive control,"[2]; 10 ng/mL, LPS 150 pg/mL","−16.5%, p = 0.012"
same,secreted IL-22 level modulation vs positive control,"[2]; 10 ng/mL, LPS 150 pg/mL","−29.4%, p = 0.008"
same,secreted TNFα level modulation vs positive control,"[2]; 10 ng/mL, LPS 150 pg/mL","−44.0%, p = 0.116"
same,secreted GM-CSF level modulation vs positive control,"[2]; 10 ng/mL, LPS 300 pg/mL","29.1%, p < 0.001"
same,secreted IFNγ level modulation vs positive control,"[2]; 10 ng/mL, LPS 300 pg/mL","−24.4%, p = 0.018"
same,secreted IL-1α level modulation vs positive control,"[2]; 10 ng/mL, LPS 300 pg/mL","2.0%, p = 0.550"
same,secreted IL-1β level modulation vs positive control,"[2]; 10 ng/mL, LPS 300 pg/mL","−2.0%, p = 0,550"
same,secreted IL-6 level modulation vs positive control,"[2]; 10 ng/mL, LPS 300 pg/mL","2.0%, p = 0.736"
same,secreted IL-8 level modulation vs positive control,"[2]; 10 ng/mL, LPS 300 pg/mL","−5.8%, p = 0.469"
same,secreted IL-10 level modulation vs positive control,"[2]; 10 ng/mL, LPS 300 pg/mL","8.3%, p = 0.178"
same,secreted IL-12 level modulation vs positive control,"[2]; 10 ng/mL, LPS 300 pg/mL","10.6%, p = 0.586"
same,secreted IL-17 level modulation vs positive control,"[2]; 10 ng/mL, LPS 300 pg/mL","−31.6%, p < 0.001"
same,secreted IL-22 level modulation vs positive control,"[2]; 10 ng/mL, LPS 300 pg/mL","−45.0%, p < 0.001"
same,secreted TNFα level modulation vs positive control,"[2]; 10 ng/mL, LPS 300 pg/mL","−40.5%, p = 0.311"
same,secreted GM-CSF level modulation vs positive control,"[2]; 100 ng/mL, LPS 150 pg/mL","21.2%, p = 0.013"
same,secreted IFNγ level modulation vs positive control,"[2]; 100 ng/mL, LPS 150 pg/mL","−40.5%, p = 0.008"
same,secreted IL-1α level modulation vs positive control,"[2]; 100 ng/mL, LPS 150 pg/mL","−3.9%, p = 0.380"
same,secreted IL-1β level modulation vs positive control,"[2]; 100 ng/mL, LPS 150 pg/mL","−13.1%, p = 0.002"
same,secreted IL-6 level modulation vs positive control,"[2]; 100 ng/mL, LPS 150 pg/mL","0.0%, p = 1.000"
same,secreted IL-8 level modulation vs positive control,"[2]; 100 ng/mL, LPS 150 pg/mL","−9.5%, p = 0.077"
same,secreted IL-10 level modulation vs positive control,"[2]; 100 ng/mL, LPS 150 pg/mL","−30.2%, p < 0.001"
same,secreted IL-12 level modulation vs positive control,"[2]; 100 ng/mL, LPS 150 pg/mL","17.2%, p = 0.544"
same,secreted IL-17 level modulation vs positive control,"[2]; 100 ng/mL, LPS 150 pg/mL","−24.4%, p = 0.025"
same,secreted IL-22 level modulation vs positive control,"[2]; 100 ng/mL, LPS 150 pg/mL","−23.7%, p = 0.241"
same,secreted TNFα level modulation vs positive control,"[2]; 100 ng/mL, LPS 150 pg/mL","−34.3%, p = 0.232"
same,secreted GM-CSF level modulation vs positive control,"[2]; 100 ng/mL, LPS 300 pg/mL","88.8%, p < 0.001"
same,secreted IFNγ level modulation vs positive control,"[2]; 100 ng/mL, LPS 300 pg/mL","−21.3%, p < 0.001"
same,secreted IL-1α level modulation vs positive control,"[2]; 100 ng/mL, LPS 300 pg/mL","6.2%, p = 0.188"
same,secreted IL-1β level modulation vs positive control,"[2]; 100 ng/mL, LPS 300 pg/mL","2.0%, p = 0.648"
same,secreted IL-6 level modulation vs positive control,"[2]; 100 ng/mL, LPS 300 pg/mL","0.0%, p = 1.000"
same,secreted IL-8 level modulation vs positive control,"[2]; 100 ng/mL, LPS 300 pg/mL","46.2%, p = 0.500"
same,secreted IL-10 level modulation vs positive control,"[2]; 100 ng/mL, LPS 300 pg/mL","−28.8%, p < 0.001"
same,secreted IL-12 level modulation vs positive control,"[2]; 100 ng/mL, LPS 300 pg/mL","17.4%, p = 0.271"
same,secreted IL-17 level modulation vs positive control,"[2]; 100 ng/mL, LPS 300 pg/mL","−30.2%, p < 0.001"
same,secreted IL-22 level modulation vs positive control,"[2]; 100 ng/mL, LPS 300 pg/mL","−31.8%, p = 0.003"
same,secreted TNFα level modulation vs positive control,"[2]; 100 ng/mL, LPS 300 pg/mL","−13.1%, p = 0.581"
same,Decreased secretion: number of treatments with statistically significant modulation,[2]; LPS 150 pg/mL,16
same,Increased secretion: number of treatments with statistically significant modulation,[2]; LPS 150 pg/mL,1
same,Decreased secretion: number of treatments with statistically significant modulation,[2]; LPS 300 pg/mL,12
same,Increased secretion: number of treatments with statistically significant modulation,[2]; LPS 300 pg/mL,2

# Source: US20250101446A1, “METHOD FOR GENETIC TRANSFORMATION OF PLANT ORGANELLE GENOME AND USES THEREOF” (Solar Grants Biotechnology Inc., priority 2022, published 2025)
